The test system of the series is ThserRS (seryl-tRNA synthetase, GME12055) (Trametes hirsuta AH28-2). The series is described as follows: fluorescence polarization. To be noted: 5 mM Mg2+; 25 mM HEPES pH 6.5, 5 mM MgCl2, 150 mM KCl, 1 mM DTT, 5% glycerol, 16 C, 30 min; probe 0.5 uM (EMSA) or 40 nM (FP); further truncations of the 32-bp probe gave ….

“lacA promoter 32-bp minimal probe (-462 to -431)” returned a Kd of 920 nM.

Source of the values: PMC10433817.
